How the values were obtained:
Nbs1 1-382 = Nbs1 1-382 (UniProt O60934); test: ITC
Nbs1 = Nbs1 (UniProt O60934); test: far-western with FLAG-Nbs1; details: reference: nonphosphorylated NTD; sites T13

Rad51 NTD peptide (from UniProt Q06609) pT13 peptide
KD (Nbs1 1-382; reference: nonphosphorylated peptide, sites T13): gained; reference no detectable binding

Rad51 NTD peptide (from UniProt Q06609) pT13/pS14 peptide
KD (Nbs1 1-382; reference: pS14 peptide, sites T13): gained; reference no detectable binding | KD (Nbs1 1-382; reference: pT13 peptide, sites S14): weaker; reference around 20

Rad51 NTD, 1-86 (from UniProt Q06609) CK2-phosphorylated NTD
binding against the reference (Nbs1): gained
